# Experimental data as given in US8597645.
# T1: Cell permeable caspase inhibitor containing the sequence IETD, P08620
# T1 chain: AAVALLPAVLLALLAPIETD
# T2: p120^CTN (immunoprecipitated), O60716
# T2 chain: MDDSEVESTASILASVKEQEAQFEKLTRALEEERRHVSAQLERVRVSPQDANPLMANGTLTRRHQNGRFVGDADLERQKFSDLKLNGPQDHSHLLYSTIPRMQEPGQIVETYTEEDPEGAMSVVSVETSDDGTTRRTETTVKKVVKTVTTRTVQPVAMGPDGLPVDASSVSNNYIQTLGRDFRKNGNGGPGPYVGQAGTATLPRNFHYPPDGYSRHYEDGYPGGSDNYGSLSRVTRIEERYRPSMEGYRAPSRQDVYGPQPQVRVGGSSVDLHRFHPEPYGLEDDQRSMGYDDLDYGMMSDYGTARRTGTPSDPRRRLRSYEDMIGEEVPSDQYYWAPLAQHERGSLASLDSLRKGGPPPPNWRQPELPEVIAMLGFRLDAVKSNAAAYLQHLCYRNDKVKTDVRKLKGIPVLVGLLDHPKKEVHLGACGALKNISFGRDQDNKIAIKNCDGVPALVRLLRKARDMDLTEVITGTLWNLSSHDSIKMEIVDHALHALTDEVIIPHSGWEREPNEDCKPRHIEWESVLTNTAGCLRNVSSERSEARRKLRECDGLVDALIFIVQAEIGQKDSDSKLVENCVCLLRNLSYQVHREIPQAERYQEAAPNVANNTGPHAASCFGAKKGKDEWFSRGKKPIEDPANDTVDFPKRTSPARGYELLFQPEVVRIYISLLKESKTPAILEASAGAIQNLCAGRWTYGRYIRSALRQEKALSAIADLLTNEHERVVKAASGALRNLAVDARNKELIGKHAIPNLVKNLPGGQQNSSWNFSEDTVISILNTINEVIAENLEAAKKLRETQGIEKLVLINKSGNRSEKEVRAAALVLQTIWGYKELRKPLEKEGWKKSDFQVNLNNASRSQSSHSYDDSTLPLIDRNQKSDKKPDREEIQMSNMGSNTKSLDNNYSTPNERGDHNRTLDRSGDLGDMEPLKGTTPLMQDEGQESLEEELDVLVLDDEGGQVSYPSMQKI
# T3: β-catenin (immunoprecipitated), P35222
# T3 chain: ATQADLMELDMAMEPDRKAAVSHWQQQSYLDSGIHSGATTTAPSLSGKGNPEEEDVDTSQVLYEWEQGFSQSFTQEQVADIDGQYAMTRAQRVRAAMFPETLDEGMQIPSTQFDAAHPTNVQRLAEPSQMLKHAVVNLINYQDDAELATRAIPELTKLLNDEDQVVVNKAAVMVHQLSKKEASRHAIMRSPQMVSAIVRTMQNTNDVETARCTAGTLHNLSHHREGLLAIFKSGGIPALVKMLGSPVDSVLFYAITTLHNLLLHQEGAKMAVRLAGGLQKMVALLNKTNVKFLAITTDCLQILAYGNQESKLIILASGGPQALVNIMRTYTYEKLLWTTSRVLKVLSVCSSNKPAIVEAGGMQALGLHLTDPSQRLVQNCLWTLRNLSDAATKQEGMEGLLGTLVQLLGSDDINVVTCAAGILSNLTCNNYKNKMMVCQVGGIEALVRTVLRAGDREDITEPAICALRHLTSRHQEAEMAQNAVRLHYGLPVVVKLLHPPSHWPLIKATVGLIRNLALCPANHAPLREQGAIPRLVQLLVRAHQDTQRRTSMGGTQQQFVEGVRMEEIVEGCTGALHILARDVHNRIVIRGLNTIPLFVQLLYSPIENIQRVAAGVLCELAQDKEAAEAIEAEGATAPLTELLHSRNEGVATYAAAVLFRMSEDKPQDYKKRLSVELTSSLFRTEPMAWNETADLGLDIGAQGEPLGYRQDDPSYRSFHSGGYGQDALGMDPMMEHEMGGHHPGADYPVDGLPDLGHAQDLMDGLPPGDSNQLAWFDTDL
# B1: Caspase-8 (endogenous, in melanocytes and melanoma cells) (protein)
# chain: MDFSRNLYDIGEQLDSEDLASLKFLSLDYIPQRKQEPIKDALMLFQRLQEKRMLEESNLSFLKELLFRINRLDLLITYLNTRKEEMERELQTPGRAQISAYRVMLYQISEEVSRSELRSFKFLLQEEISKCKLDDDMNLLDIFIEMEKRVILGEGKLDILKRVCAQINKSLLKIINDYEEFSKERSSSLEGSPDEFSNGEELCGVMTISDSPREQDSESQTLDKVYQMKSKPRGYCLIINNHNFAKAREKVPKLHSIRDRNGTHLDAGALTTTFEELHFEIKPHDDCTVEQIYEILKIYQLMDHSNMDCFICCILSHGDKGIIYGTDGQEAPIYELTSQFTGLKCPSLAGKPKVFFIQACQGDNYQKGIPVETDSEEQPYLEMDLSSPQTRYIPDEADFLLGMATVNNCVSYRNPAEGTWYIQSLCQSLRERCPRGDDILTILTEVNYEVSNKDDKKNMGKQMPQPTFTLRKKLVFPSD
# B2: Recombinant caspase-8 (protein)
# chain: SESQTLDKVYQMKSKPRGYCLIINNHNFAKAREKVPKLHSIRDRNGTHLDAGALTTTFEELHFEIKPHDDCTVEQIYEILKIYQLMDHSNMDCFICCILSHGDKGIIYGTDGQEAPIYELTSQFTGLKCPSLAGKPKVFFIQACQGDNYQKGIPVETDSEEQPYLEMDLSSPQTRYIPDEADFLLGMATVNNCVSYRNPAEGTWYIQSLCQSLRERCPRGDDILTILTEVNYEVSNKDDKKNMGKQMPQPTFTLRKKLVFPSD
# Experiments:
# [1] = target: T1, Cell permeable caspase inhibitor …
# [2] = target: T2, p120^CTN (immunoprecipitated), O60716
# [3] = target: T3, β-catenin (immunoprecipitated), P35222
Protein,Proteolytic processing of caspase-8 (immunoblot) [1],In vitro cleavage of the immunoprecipitated protein [2],In vitro cleavage of the immunoprecipitated protein [3]
B1,Treatment of cells with a cell permeable inhibitor of caspase-8 prevented its proteolytic processing,–,–
B2,–,Cleavage of immunoprecipitated β-catenin and p120^CTN by recombinant caspase-8 in vitro also was not demonstrated,Cleavage of immunoprecipitated β-catenin and p120^CTN by recombinant caspase-8 in vitro also was not demonstrated
